Measured values taken from the supplement of paper PMC9170038.

Tested on: MS2 coat protein
Assay: apparent KD of MS2 coat protein; designed switch direction (-1 OFF switch, 1 ON switch): -1; higher = weaker reporter binding
Method in brief: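 Normalised cluster fluorescence was curve-fitted, and each design's median over clusters is its apparent KD. Before this, SNAP-549-labelled MS2 coat protein was titrated from 0.7 or 1.5 nM, doubling to 3 µM, over RNA switches transcribed on Illumina chips by stalled E. coli RNA polymerase. Titrations had no input, 200 uM small-molecule ligand, or an oligonucleotide input, and steps lasted 0.8–1.5 h (lowest) to 10–20 min (highest).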

[1] = input ligand: microRNA oligo, concentration not stated
[2] = Eterna round: R95, input ligand: microRNA oligo, concentration not stated
[3] = Eterna round: R95, input ligand: FMN 200 uM
[4] = Eterna round: R95, input ligand: none

Sequence | apparent KD of MS2 coat protein (input ligand: FMN 200 uM) [nM] | apparent KD of MS2 coat protein (input ligand: none) [nM] | apparent KD of MS2 coat protein [2] [nM] | also measured
CGCAACACAUGAGGAUCAAACAUGAGGAUCACCCAUGUAAAACAAGCUUUUUGCUCGUCUUAUAAAUAUGUGUUGCG [Electric Eye 1 - Jieux - Sensor, turn-off variant 1] (Eterna round: R97, puzzle: Sensor, turn-off variant 1) | 18.4 | 21 | – | –
CGCACACAUGAGGAUCACCCAUGUGAGGAUAUCAUGCUUCGUAGUAAACUACGAAGUGUGAGAAGGCACAUGCC [Omei Ex1 D7] (Eterna round: R97, puzzle: Exclusion 1) | 24.2 | 18.4 | – | –
CGCAUGUCAGGAUAUCGUGCAUACAACGAAAGUUCUAUGUGCGAGAAGGGACAUGAGGAUCACCCAUGUUAGCG [Omei Ex4 A9] (Eterna round: R97, puzzle: Exclusion 4) | 741 | 604 | – | –
CGGAUGUAAGGAUAUCGUGCAAGUUUCAAAAGAGGCUUGUGCGAGAAGGUACAUGAGGAUCACCCAUGUAGGUU [Omei Ex4 B6] (Eterna round: R97, puzzle: Exclusion 4) | 157 | 75.8 | – | –
CGGAUGUGAGGAUAUACAUGAGGAUCACCCAUGUGUGCCAGCUAGAUGACUGGCACUUGUAGAAGGCACGUCUG [Mat - Exclusion 3 - Mod of JL D91] (Eterna round: R96, puzzle: Exclusion 3) | 25.5 | 16.1 | – | apparent KD of MS2 coat protein [1]: 11.3 nM
CGGAUGUGAGGAUAUACAUGAGGAUCACCCAUGUGUGCCAGCUAGAUGACUGGCACUUGUAGAAGGCACGUCUG [Mat - Exclusion 3 - Mod of JL D91] (puzzle: Exclusion 3) | – | – | 11.3 | –
CGGAUGUUAGGAUAUUAGUAGUAGUCAGAAUAGACUAUUACUGAGAAGGAACAUGAGGAUCACCCAUGUAUCCG [Eli x4 4.20] (Eterna round: R97, puzzle: Exclusion 4) | 47.4 | 17.7 | – | –
CGGCAACAUGAGGAUCACCCAUGUUAGGAUAUCGGUGGCUGACACGAAACAGGACCGGUGAGAAGGAGUAUGGU [Eternabot (L1) Solution 2] (Eterna round: R97, puzzle: Exclusion 1) | 39 | 39.2 | – | –
CGGCGACAUGAGGAUCACCCAUGUGAGGAUAUGACGGGAAAAGCGUGAGCAGUUUGUGUCAGAAGGCGCGUAGG [salish99_ex1_r4_081] (Eterna round: R97, puzzle: Exclusion 1) | 20.2 | 28.7 | – | –
CGGGCGUGAGGAUAUCCAUCUGGAUCAGACUAGAUCCUGAUGGAGAAGGCACAUGAGGAUCACCCAUGUACCCG [Eli 4x 4.50] (Eterna round: R97, puzzle: Exclusion 4) | 22.2 | 18.6 | – | –
CGGGUGAUAGGAUAUGACCAAGGUGACAUGAGGAUCACCCAUGUGAUCGUCGUAGACCUGUCAGAAGGGUUCCCGA [Bivevebe] (Eterna round: R97, puzzle: Exclusion 5) | 78.7 | 34.9 | – | –
CGGUACUGAGGAUAUACAUGAGGAUCACCCAUGUGUUCUAGCUAGCGUACUGGCAUUUGUAGAAGGCGGUGCUG [JL-ex3-3.23 Brourd mod] (puzzle: Exclusion 3) | – | – | 16.4 | –
CGGUGCUGAGGAUAUACAUGAGGAUCACCCAUGUGUGCCAGCUAGCUGACUGGCACUUGUAGAAGGCAGUACUG [JL-ex3-2.13 Brourd mod] (puzzle: Exclusion 3) | – | – | 12.4 | –
CGGUGCUGAGGAUAUACAUGAGGAUCACCCAUGUGUUCUAGCUAGCGUACUGGCAGAUGUAGAAGGCGGUACUG [JL-ex3-3.43 Brourd mod] (puzzle: Exclusion 3) | – | – | 17.1 | –
CGUAGCAAUGUGAGGAUAUCUAGAGCUUCGGCUCUAGAGAAGGCACAUGAGGAUCACCCAUGUGAUUAGCUACG [BmEx4/9-B1] (Eterna round: R97, puzzle: Brourd's mod of Exclusion 4) | 989 | 347 | – | –
CGUAGCAUUGUGAGGAUAUCUAGAGCUUCGGCUCUAGAGAAGGCACAUGAGGAUCACCCAUGUGAUUAGCUACG [BmEx4/9-C1] (Eterna round: R97, puzzle: Brourd's mod of Exclusion 4) | 1760 | 111 | – | –
CGUAGUCUUCGGACUACGAACAUGAGGAUCACCCAUGUAAUGAGCAGAUCCUCAUGCAAGCUUUUUGCUCGUCUUAU [Sensor v3 - turn-off variant 1 - 46] (puzzle: Sensor v3, turn-off variant 1) | – | – | 11.5 | apparent KD of MS2 coat protein [3]: 13.8 nM; apparent KD of MS2 coat protein [4]: 20.7 nM
CGUAGUCUUCGGACUACGAACAUGAGGAUCACCCAUGUAUAGAGCAGAUCUUCAUGCAAGCUUUUUGCUCGUCUUAU [Sensor v3 - turn-off variant 1 - 48] (puzzle: Sensor v3, turn-off variant 1) | – | – | 10.8 | apparent KD of MS2 coat protein [3]: 82 nM; apparent KD of MS2 coat protein [4]: 86.6 nM

Sequence | apparent KD of MS2 coat protein (input ligand: FMN 200 uM) [nM] | apparent KD of MS2 coat protein (input ligand: none) [nM] | apparent KD of MS2 coat protein [2] [nM] | also measured
CGUCAGUGAGGAUAUGGUAUCGUUUACAUGAGGAUCACCCAUGUUUCAUGGGACUAGAGACUAGAAGGUACUGACG [EX5 #43] (Eterna round: R97, puzzle: Exclusion 5) | 408 | 579 | – | –
CGUCAUCAAGUCAGGAUAUCGUCAAAUCAAUCAGGCGAGAAGGGACAUGAGGAUCACCCAUGUCGACUCAUCAC [Ex4 #3] (Eterna round: R97, puzzle: Brourd's mod of Exclusion 4) | 24.9 | 21.3 | – | –
CGUCCGGCUUCCCUUCAAGACAUGAGGAUCACCCAUGUUUUUGUUUUUGCGAGCUUUUUGCUUUUUGCUCGUCUUGU [Even Better Attempt 2] (puzzle: Sensor v3, turn-off variant 1) | – | – | 13 | apparent KD of MS2 coat protein [3]: 20.2 nM; apparent KD of MS2 coat protein [4]: 18.7 nM
CGUCCUCUAGUUAGGAUAUUGUCUCGGAUACGAAACAAGAAGGGACAUGAGGAUCACCCAUGUAAUGAGGACGA [Malc #30 mod 16] (puzzle: Brourd's mod of Exclusion 4) | – | – | 27.3 | –
CGUGACUCAGGAUAUCUAUUAUGUCACAUGAGGAUCACCCAUGUCCAGCGAAAGCUGGAGGGAGAAGGGAGUCACG [Fiskers Ex 5 - 45] (puzzle: Exclusion 5) | – | – | 118 | –
CGUGAGUCAGGAUAUGCCUGUACUAACUUGAGGAUCACCCAAGUGUCCUCCCGGUGCAAUGCAGAAGGGACGACGA [Oninlein] (Eterna round: R97, puzzle: Exclusion 5) | 765 | 74.2 | – | –
CGUGCGUAUGUGAGGAUAUGCUGGUCCUUGGAUCGGCAGAAGGUACAUGAGGAUCACCCAUGUGGUGUCGUUCU [salish99_Bmod_ex4_106] (puzzle: Brourd's mod of Exclusion 4) | – | – | 171 | –
CGUGGCUUUUACGUGAGUGGUGGGUGCAACAGGUGGGUUACAUGAGGAUCACCCAUGUGCUCACUUGCUCGUCUUUU [Grok-var2-10] (puzzle: Sensor v3, turn-off variant 2) | – | – | 17.5 | apparent KD of MS2 coat protein [3]: 51.8 nM; apparent KD of MS2 coat protein [4]: 52.5 nM
CGUGUACUGCAGGAUAUCCUAGAUGCGGACAUCGGAGAAGGGCAGACAUGAGGAUCACCCAUGUGUGGCGGAGA [EX6 B.16] (Eterna round: R97, puzzle: Exclusion 6) | 221 | 67.3 | – | –
CGUUACUACAAGCUUUGGGACAUGAGGAUCACCCAUGUUCGUCUUAUUGUAGUAGGUACGCUGACGUACCUACUACU [JL-sv1-2.10 Brourd mod] (puzzle: Sensor v3, turn-off variant 1) | – | – | 29 | apparent KD of MS2 coat protein [3]: 15.6 nM; apparent KD of MS2 coat protein [4]: 13.9 nM
CGUUGGCGAGGAUAUACAUGAGGAUCACCCAUGUGAGAGAUACUAGUGAGGUCGAUUAGUAGAAGGCGCUGACG [Mat X3R4 m1] (Eterna round: R97, puzzle: Exclusion 3) | 949 | 34.9 | – | –
CUAAAAGUCGAGGAUAUGCACCGGCUCGCUGACGCAGAAGGCGACACAUGAGGAUCACCCAUGUCGGUACGCGA [salish99_ex6_r004_451] (Eterna round: R97, puzzle: Exclusion 6) | 33.9 | 18.3 | – | –
CUAAAUCAUGUAGGAUAUGCGUAGCAAAGCUAUGCAGAAGGACAUGAGGAUCACCCAUGUCAUUCCGUCUGGAGACAGACGGGA [Mat - Exclusion NG 1 - Mod of JL - D55] (Eterna round: R96, puzzle: Exclusion NG 1) | 186 | 30.8 | – | apparent KD of MS2 coat protein [1]: 21.6 nM
CUAAAUCAUGUAGGAUAUGCGUGGCAAAGCUAUGCAGAAGGACAUGAGGAUCACCCAUGUCAUUCCGUCUGAGAACAGACGGGA [Mat - Exclusion NG 1 - Mod of JL - D51] (Eterna round: R96, puzzle: Exclusion NG 1) | 172 | 22.1 | – | apparent KD of MS2 coat protein [1]: 17.1 nM
CUAAAUCAUGUAGGAUAUGCGUGGCGAAGCUAUGCAGAAGGACAUGAGGAUCACCCAUGUCAUUCCGUCUGCGUACAGACGGGA [Mat - Exclusion NG 1 - Mod of JL - D48] (Eterna round: R96, puzzle: Exclusion NG 1) | 133 | 28.6 | – | apparent KD of MS2 coat protein [1]: 21 nM
CUAACACAUGAGGAUCACCCAUGUGAGGAUAUGCGUACGUUGUCCGUAGGCGACGUGCGCAGAAGGCGCUUGGU [JL-ex1-3.20 Eli mod] (puzzle: Exclusion 1) | – | – | 51.9 | –
CUACUCGUUGUGAGGAUAUCGUUUUCGUCACGGAUCGAGAAGGCACAUGAGGAUCACCCAUGUUUGAUGUGGAU [JR_BMOE4_Sub091] (Eterna round: R96, puzzle: Brourd's mod of Exclusion 4) | 89 | 38.1 | – | apparent KD of MS2 coat protein [1]: 29.9 nM
